Reference: paper PMC10487585, “Refolding Increases the Chaperone-like Activity of αH-Crystallin and Reduces Its Hydrodynamic Diameter to That of α-Crystallin” (International Journal of Molecular Sciences, 2023)

What was measured:
[1] = target: UV-damaged βL-crystallin (bovine (endogenous in steer lens))
[2] = target: the molecule itself; experiment: dynamic light scattering; ZetaSizer S nano; protein 1 mg/mL in PBS (40 mM sodium phosphate, pH 7.0, 100 mM NaCl, 1 mM EDTA, 3 mM NaN3); native protein without urea, or after renaturation from urea
[3] = target: T1, αB-crystallin (bovine (endogenous in steer lens), UniProt P02510 1-175); experiment: SEC; Sephacryl S300HR, 2.5 × 90 cm, 1.6 mL/min, calibrated with standard proteins; polypeptides of the preparations and fractions by SDS-PAGE; conditions: both partners purified
T1 construct: αB-crystallin (19.8 kDa), identified by mass on SDS-PAGE; source: purified from lenses of 6-month-old steers as a part of α-crystallin and HMWA
T1 sequence (looked up): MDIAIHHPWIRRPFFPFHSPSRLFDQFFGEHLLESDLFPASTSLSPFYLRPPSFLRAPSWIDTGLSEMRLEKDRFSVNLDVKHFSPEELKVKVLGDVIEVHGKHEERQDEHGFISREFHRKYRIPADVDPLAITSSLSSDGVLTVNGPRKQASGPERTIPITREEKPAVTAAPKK

refolded HMWA (from UniProt P02470 1-173; P02510 1-175) (complex)
abscissa point of intersection (reciprocal of AC0) of the relative aggregation rate of UV-damaged βL-crystallin against the chaperone/target protein ratio; points with accelerated aggregation left out (mol/mol (chaperone/target protein)) [1]: 0.38

αH-crystallin, high molecular weight aggregate (native) (from UniProt P02470 1-173; P02510 1-175) (complex)
abscissa point of intersection (reciprocal of AC0) of the relative aggregation rate of UV-damaged βL-crystallin against the chaperone/target protein ratio (mol/mol (chaperone/target protein)) [1]: 0.46
initial adsorption capacity AC0 from the aggregation kinetics of UV-damaged βL-crystallin (37 °C, 360 nm): target protein/chaperone mol/mol ratio, counted on monomers (mol/mol (target protein/chaperone)) [1]: 2

B1: α-crystallin (native, from the lens cortex) (complex, bovine (endogenous in steer lens))
chain 1: MDIAIQHPWFKRTLGPFYPSRLFDQFFGEGLFEYDLLPFLSSTISPYYRQSLFRTVLDSGISEVRSDRDKFVIFLDVKHFSPEDLTVKVQEDFVEIHGKHNERQDDHGYISREFHRRYRLPSNVDQSALSCSLSADGMLTFSGPKIPSGVDAGHSERAIPVSREEKPSSAPSS
chain 2: MDIAIHHPWIRRPFFPFHSPSRLFDQFFGEHLLESDLFPASTSLSPFYLRPPSFLRAPSWIDTGLSEMRLEKDRFSVNLDVKHFSPEELKVKVLGDVIEVHGKHEERQDEHGFISREFHRKYRIPADVDPLAITSSLSSDGVLTVNGPRKQASGPERTIPITREEKPAVTAAPKK
notes: αA-crystallin, from steer lens; identified by mass on SDS-PAGE (20 kDa); αB-crystallin, from steer lens; identified by mass on SDS-PAGE (19.8 kDa); Polydisperse oligomer; by SDS-PAGE αA-crystallin 30%, αB-crystallin 60%, truncated α-crystallin 10% (a mixture of αA and αB fragments); also called authentic α-crystallin; native α-crystallin; source: purified from lenses of 6-month-old steers (gel …)
binding result [2]: binds

B2: renatured α-crystallin (complex, bovine (endogenous in steer lens))
chain 1: MDIAIQHPWFKRTLGPFYPSRLFDQFFGEGLFEYDLLPFLSSTISPYYRQSLFRTVLDSGISEVRSDRDKFVIFLDVKHFSPEDLTVKVQEDFVEIHGKHNERQDDHGYISREFHRRYRLPSNVDQSALSCSLSADGMLTFSGPKIPSGVDAGHSERAIPVSREEKPSSAPSS
chain 2: MDIAIHHPWIRRPFFPFHSPSRLFDQFFGEHLLESDLFPASTSLSPFYLRPPSFLRAPSWIDTGLSEMRLEKDRFSVNLDVKHFSPEELKVKVLGDVIEVHGKHEERQDEHGFISREFHRKYRIPADVDPLAITSSLSSDGVLTVNGPRKQASGPERTIPITREEKPAVTAAPKK
notes: αA-crystallin, from steer lens; as in m1; αB-crystallin, from steer lens; Same polypeptides as m1, reassembled from monomers after urea
binding result [2]: binds

B3: αA-crystallin (natural protein, bovine (endogenous in steer lens), UniProt P02470 1-173, looked up)
chain: MDIAIQHPWFKRTLGPFYPSRLFDQFFGEGLFEYDLLPFLSSTISPYYRQSLFRTVLDSGISEVRSDRDKFVIFLDVKHFSPEDLTVKVQEDFVEIHGKHNERQDDHGYISREFHRRYRLPSNVDQSALSCSLSADGMLTFSGPKIPSGVDAGHSERAIPVSREEKPSSAPSS
notes: αA-crystallin (20 kDa), identified by mass on SDS-PAGE; source: purified from lenses of 6-month-old steers as a part of α-crystallin and HMWA
binding result [3]: binds
